# Where “and” joins values, the source holds several entries; their conditions need not be identical. Equal entries are not always repeated.
# B1: PRO 140: humanized IgG4,κ anti-CCR5 mAb, humanized version of the murine mAb PA14 (antibody, chains of the INN, looked up, V domains shown)
# VH: EVQLVESGGGLVKPGGSLRLSCAASGYTFSNYWIGWVRQAPGKGLEWIGDIYPGGNYIRNNEKFKDKTTLSADTSKNTAYLQMNSLKTEDTAVYYCGSSFGSNYVFAWFTYWGQGTLVTVSS
# VL: DIVMTQSPLSLPVTPGEPASISCRSSQRLLSSYGHTYLHWYLQKPGQSPQLLIYEVSNRFSGVPDRFSGSGSGTDFTLKISRVEAEDVGVYYCSQSTHVPLTFGQGTKVEIK
# Legend:
# [1] = tested on: HIV-1JR-FL envelope-mediated membrane fusion; test: microbe, parasite or virus in culture; assay type: cell-based; details: inhibitor alone, experiment depicted in FIG. 15A; read-out: IC90
# R5-tropic HIV-1 = test: Phase 1b clinical study: plasma HIV-1 RNA; assay type: in vivo, human
# Method: Plasma HIV-1 RNA levels were determined with the Cobas Amplicor HIV-1 Monitor Test (Version 1.5; Roche Diagnostics, Branchburg, N.J.). Samples <400 copies/mL were re-analyzed with the Ultrasensitive Monitor Method. Co-receptor tropism was determined at screening and Days 1, 8, 29 and 59 (Trofile™ assay, Monogram Biosciences, Inc., South San Francisco, Calif.). Viral susceptibility was determined on Days 1 and 59 with the Phenosense™ HIV Entry assay. Results obtained with CCR5^+ target cells were reported as Fold Change or relative EC50 (rEC50), which was defined as (EC50 test isolate)/(EC50 reference virus). […] Maximum percent inhibitions were determined from the plateaus of the inhibition curves. The reference virus was HIV-192HT594, a low-passage dual-tropic isolate. GeneSeq™ (Monogram Biosciences) was used to assess HIV-1 subtype and genotypic susceptibility to protease and reverse transcriptase inhibitors.
# Statistical analyses were performed on log10 transformed HIV-1 RNA data, and changes were calculated relative to baseline (Day 1 pre-dose). Treatment and placebo groups were compared using an analysis of variance (ANOVA) model. […] In addition, 2-sided paired t-tests were used to evaluate changes from baseline in CCR5^+ lymphocytes. Where necessary, end-of-study lymphocyte data were used in place of missing baseline data. […] AUC∞ values for individual subjects were used in the model. Clinical Trial Design and Study Results:
# The subjects comprised 31 males and 8 females, and their median age, CD4 counts and plasma HIV-1 RNA levels at baseline were 40.3 years, 484 cells/μL and 26,900 copies/mL, respectively Fifteen subjects reported prior use of antiretroviral therapy, and seven were co-infected with hepatitis C virus (HCV). All viruses were subtype B, and baseline genotypic resistance to existing drugs was limited to single-class resistance in two subjects in the 2 mg/kg group and a single subject in each of the other groups. The mean infusion time was 36 minutes, and all subjects completed the 58-day follow-up period. All patients were screened prior to the study for the presence of virus that utilizes only CCR5 as the entry coreceptor, i.e., CCR5-tropic virus.
molecule,measurement,setting,value
B1,IC90,[1],111 nM
same,"AUC50, exposure required to achieve 50% of Emax",R5-tropic HIV-1; Emax model,43.7 ± 15.6 mg·days/L
same,Mean HIV-1 RNA reduction (maximum),"R5-tropic HIV-1; HIV-infected adults, single IV 0.5 mg/kg",0.58 log10
same,day by which viral loads returned to baseline,R5-tropic HIV-1; all treatment groups,≤ 29 days
same,lowest documented HIV-1 RNA level on study,"R5-tropic HIV-1; human, in vivo",61 copies/mL
same,Log10 change from baseline in HIV-1 RNA: Mean (±SD) of individual nadirs,R5-tropic HIV-1; single IV 0.5 mg/kg,−0.58 ± 0.30 log10
same,antiviral response rate (subjects with ≥1.0 log10 reduction at any time),R5-tropic HIV-1; single IV 0.5 mg/kg,10%
same,mean log10 decline in viral load at Day 10,R5-tropic HIV-1; single IV 0.5 mg/kg,0.37 log10
same,Log10 change from baseline in HIV-1 RNA: Mean (±SD) at Day 10,"R5-tropic HIV-1; single IV 0.5 mg/kg, 0.5 mg/kg",−0.37 log10 and −0.37 ± 0.54 log10
same,Log10 change from baseline in HIV-1 RNA: Mean (±SD) of individual nadirs,R5-tropic HIV-1; single IV 2 mg/kg,−1.20 ± 0.63 log10
same,Mean HIV-1 RNA reduction (maximum),R5-tropic HIV-1; single IV 2 mg/kg,1.20 log10
same,antiviral response rate (subjects with ≥1.0 log10 reduction at any time),R5-tropic HIV-1; single IV 2 mg/kg,60%
same,mean log10 decline in viral load at Day 10,R5-tropic HIV-1; single IV 2 mg/kg,1.04 log10
same,Individual HIV-1 RNA reductions (ranged to),"R5-tropic HIV-1; single IV 2 mg/kg, 2 mg/kg",up to 2.5 log10 and ≤ 2.5 log10
same,Log10 change from baseline in HIV-1 RNA: Mean (±SD) at Day 10,"R5-tropic HIV-1; single IV 2 mg/kg, 2 mg/kg",−1.04 log10 and −1.04 ± 0.45 log10
same,Mean HIV-1 RNA reduction (average maximum decrease of viral load),R5-tropic HIV-1; single IV 5 mg/kg,1.83 log10
same,antiviral response rate (subjects with ≥1.0 log10 reduction at any time),R5-tropic HIV-1; single IV 5 mg/kg,100%
same,day on which mean viral load reductions of 1 log10 were first observed,R5-tropic HIV-1; single IV 5 mg/kg,5 Day
same,mean log10 decline in viral load at Day 10 (nine days post-treatment),R5-tropic HIV-1; single IV 5 mg/kg,1.70 log10
same,persistence of mean 1 log10 viral load reduction post-treatment,R5-tropic HIV-1; single IV 5 mg/kg,2-3 weeks
same,viral load change at day 22,R5-tropic HIV-1; single IV 5 mg/kg,−0.73 log
same,Individual HIV-1 RNA reductions (ranged to),"R5-tropic HIV-1; single IV 5 mg/kg, 5 mg/kg",up to 2.5 log10 and ≤ 2.5 log10
same,Log10 change from baseline in HIV-1 RNA: Mean (±SD) at Day 10,"R5-tropic HIV-1; single IV 5 mg/kg, 5 mg/kg",−1.70 log10 and −1.70 ± 0.49 log10
same,Log10 change from baseline in HIV-1 RNA: Mean (±SD) of individual nadirs,"R5-tropic HIV-1; single IV 5 mg/kg, 5 mg/kg",−1.8 log10 and −1.84 ± 0.41 log10
